From patent US20250297232A1, “BACTERIAL MYELOPEROXIDASE-CATALASE AND APPLICATIONS THEREOF” (priority 2022, published 2025) come the findings set out here.

Format in all cases: biochemical
Series [1] is described as follows: Peroxidase activity with ABTS. Particulars: ABTS range; 0.5 nM wt RbMPO, 79 μM H2O2, pH5.5, 37° C. On the procedure:
The plate reader was configured to run a 10 min kinetics at 430 nm with the following ABTS concentration range: 0, 0.1, 0.2, 0.5, 1, 2, 5, 10, 15, 20, 30 and 40 mM.

Series [2] can be described thus: Catalase activity (absorbance decay at 240 nm, stopped-flow). Particulars: for kss: catalase, 300 nM enzyme, pH 7.5, 500 μM H2O2; for catalase activity, in words: 2 μM wt RbMPO, 37° C.
Experimental: Catalase activity was measured using the stopped-flow set-up, which was configured to measure absorbance decay at 240 nm and at 37° C.
Series [3] in a line: Pre-steady state: return of wt RbMPO to its native state, I^− range. Particulars: from pre-steady state return to native state with I^−, SCN^−, Br^−, Cl^−. On the procedure:
Kinetic parameters under pre-steady-state condition were performed with a Biologic SFM400 stopped-flow at 412 nm, 37° C. and with 50 mM sodium phosphate buffer at pH7.5. […] An exponential linear fit was applied to each kinetic using the following formula: […]
The return of the enzyme to its native state was studied by the impact of increasing concentrations of (pseudo)-halides substrates on compound I (FIG. 9B). […] It is the time difference (s) between the two characteristic steps that allowed the calculation of the values of the Vreturn(μM^−1.s^−1) values: […]

B1: wt RbMPO: novel bacterial heme peroxidase (myeloperoxidase-catalase) of about 78 KDa from Rhodopirellula baltica, SEQ ID NO: 1, produced recombinantly in E. coli (protein, listed as Rhodopirellula baltica)
chain: MLFWSKRTRKHPGRKRRRLRSEQLESRQLLAADFGGYRHNIYDAEDVNDDGRVSAIDALLVINAMTSETSRDENVFTDVNGDGRRSALDALRVINRIERGDVFPIDTSGDEDLNTLLPEMPSEVRSIDGSGNNPNDHLWGSVGQRLIRMAPAAYGDGISTLAGANRPSAREVSNVLSAMNTSQVLNDRGLSAFVYVWGQFIDHDLGLTESDEHGEAIDISVPEGDLWFDPMGSGEAVIPMTRTPIADGTGTSVGNPAQQFNQITAFIDGSMVYGSDAATAERLRTFAGGRLAISDNGLLPMDESGMVIAGDVRASENVGLTAIQTLFVREHNRLADEIFAADPEATDEEIYQRARLVVASLIQSITYNEFLPALLGQRAMDSYRGYDASVNPGIANEFSTAAFRLGHSTLRDEVGFMSNDGRESKDEMELKDAFFHASMLEETGIDSLLKFDASVQAQEIDLAVVDSLRNFLFGPPGAGGLDLVAMNIQRGRDHGLSDYNTTRQAYGLDRVETFDQITGDVELQQKLASLYGTVDNIDLWVGLMAEDHQHDASVGELTGLIIADQFQRTRDGDRFFYKNVLTDSEVESIERSTLADLIERNTSVDGLQENVFFMQVELRGRVILASSIPPNTMPSEVREEEIRGVSGMAIELIDASGKLVDSTVSDQHGNYRFRALSETGDYQVRLSESGEAMDVLVAHGAERIRGLDFIVLA
In series [1], B1 gave a k2 of 10620 M⁻¹ s⁻¹. The catalase activity kept result is on record as “more than 80%” in series [2] (about 50° C. to about 60° C.); “more than 90%” in series [2] (between 20° C. and 40° C.). Besides, the kss in series [2] (10° C.) was 2.04 ± 0.01 s⁻¹; in series [2] (20° C.), 2.55 ± 0.02 s⁻¹; in series [2] (30° C.), 2.75 ± 0.01 s⁻¹; in series [2] (37°), 2.78 ± 0.01 s⁻¹; in series [2] (40° C.), 2.64 ± 0.01 s⁻¹; in series [2] (50° C.), 2.43 ± 0.01 s⁻¹. In addition, the kss in series [2] (60° C.) turned out to be 2.39 ± 0.01 s⁻¹. The “catalase activity, in words” value in series [2] (pH4, 5, 8 and 9) was “no detectable catalase activity”; in series [2] (pH6 and pH10), “negligible”. In addition, the substrate specificity result in series [3] is “I^−>SCN^−>Br^− Cl^−”.
